Tested on: transplanted liver cancer H22
Assay: Example 13: different administration orders of interferon and gemcitabine, transplanted liver cancer H22 in mice
Format: in vivo, BALB/c mice
Details: PEG-mIFN-α4 only, 1 microgram per mouse s.c. once a week
Procedure: PEG-mIFN-α4 was administered by subcutaneous injection on the back of the neck, with a dose of 1 microgram per mouse. The administration began on the day after grouping. In the PEG-mIFN-α4 only group, PEG-mIFN-α4 was administered once a week. In the PEG-mIFN-α4 combined with gemcitabine (administered at the same time) group, PEG-mIFN-α4 and gemcitabine were administered on the same day, once a week. In the PEG-mIFN-α4 combined with gemcitabine (PEG-mIFN-α4 was administered 72 hours after gemcitabine) group, gemcitabine was given 3 days before PEG-mIFN-α4, once a week. PEG-mIFN-α4 combined with gemcitabine (gemcitabine was given 72 hours after PEG-mIFN-α4) group, PEG-mIFN-α4 was given first, and gemcitabine was given 3 days after, once a week. In the normal saline control group, an equal volume of normal saline was given. Gemcitabine was injected intraperitoneally at a dose of 60 mg/kg.
SAS 9.4 software was used to compare the differences in tumor incidence between groups, and the statistical tests were all two-sided tests.
The tumor incidence of each group was calculated based on the tumor volume greater than or equal to 62.5 mm^, which is determined as positive for tumor occurrence. […] Mice determined to be negative for tumor development were confirmed by dissection, and no solid tumor was found in the axilla. […]

B1: PEG-mIFN-α4: deglycosylated recombinant mouse interferon α4 modified with 40 kD Y-type polyethylene glycol succinimide ester (YPEG-NHS); SEQ ID NO: 6 (protein)
chain: CDLPHTYNLGNKRALTVLEEMRRLPPLSCLKDRKDFGFPLEKVDNQQIQKAQAILVLRDLTQQILNLFTSKDLSATWNATLLDSFCNDLHQQLNDLKACVMQEPPLTQEDSLLAVRTYFHRITVYLRKKKHSLCAWEVIRAEVWRALSSSTNLLARLSEEKE
modifications: 40 kD Y-type PEG; deglycosylated; peginterferon murine alpha 4
With B1 the “Median survival period (time after tumor inoculation, day)” value (by day 151) was 38.0 days and the tumor incidence (day 151 after tumor inoculation, tumor volume ≥62.5 positive) was 100.0%.
